Columns and labels:
Lambda exonuclease = test: cleavage_in_vitro; conditions: rate at 30,000 psi, 20 C; 89 mM glycine-KOH pH 9.4, 3.3 mM MgCl2 assay buffer; reversible pressure inhibition
[1] = tested on: T4 DNA polymerase (3'-5' exonuclease) (Bacteriophage T4?); test: cleavage_in_vitro; conditions: atmospheric pressure, room temperature

Q: Lambda DNA HindIII digest fragments was tested. Which activity (Lambda exonuclease) did it give?
A: Its activity is 0.1 bases/s.

Q: Which activity (bp digested in 20 min) [1] does the source give for DNA size markers (lambda DNA) here?
A: Its activity (bp digested in 20 min) is 100.

— patent publication US6036923
